Test results taken from PMC6640694 (Antibodies, 2019).

B1: tOX40.39 (S-CL-LN-1) (antibody, V domains shown)
VH: EVQLVESGGGLVQPGGSLRLSCAASGFTFSNYAMTWVRQAPGKGLEWVSTISGSGGSTYYADSVKGRFTISRDNSKNTLYLQMNSLRAEDTAVYYCAKADCGDNCYSFFDYWGQGTLVTVSS
VL: DIQMTQSPSSLSASVGDRVTITCRASQGISNWLAWYQQKPEKAPKSLIYAASSLQSGVPSRFSGSGSGTDFTLTISSLQPEDFATYYCQQYNSYPPTFGRGTKVEIK
B2: tOX40.37 (S-S-Sp-10/S-CL-Sp-1) (antibody, V domains shown)
VH: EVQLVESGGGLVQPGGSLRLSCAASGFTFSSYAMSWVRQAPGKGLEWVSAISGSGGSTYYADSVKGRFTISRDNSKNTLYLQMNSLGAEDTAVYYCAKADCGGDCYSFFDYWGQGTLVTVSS
VL: DIQMTQSPSSLSASVGDRVTITCRASQGISSWLAWYQQKPEKAPKSLIYAASSLQSGVPSRFSGSGSGTDFTLTISSLQPEDFATYYCQQYNSYPPTFGQGTKVEIK
B3: tOX40.41 (S-CL-LN-9) (antibody, V domains shown)
VH: QVQLQESGPGLVKPSETLSLTCTVSGGSISSYYWSWIRQPPGKGLEWIGYIYYSGSTNYNPSLKSRVTISVDTSKNQFSLKLSSVTAADTAVYYCARYYDILTVWDWFDPWGQGTLVTVSS
VL: DIQMTQSPSSLSASVGDRVTITCRASQGISSWLAWYQQKPGKAPKSLIYAASSLQSGVPSRFSGSGSGTDFTLTISSLQPEDFATYYCQQYNSYPITFGQGTRLEIK
B4: tOX40.22 (S-CL-LN-5) (antibody, V domains shown)
VH: QVQLVESGGGVVQPGRSLRLSCAASGFTFSNYGMHWVRQAPGKGLEWVAVIWLDGSNKYYADSVKGRFTISRDNSKNTLYLQMNSLRAEDTAVYYCARAAAGSLYYGMDVWGQGTTVTVSS
VL: DIQMTQSPSSLSASVGDRVTITCRASQGINTWLAWYQQKPEKAPKSLIYAASSLQSGVPSRFSGSGSGTDFTLTISSLQPEDFATYYCQQYYSYPWTFGQGTKVEIR
B5: tOX40.15 (S-S-Sp-6) (antibody, V domains shown)
VH: QVQLVESGGGVVQPGRSLRLSCAASGFTFSSYGMHWVRQAPGKGLEWVAIIWYDGSNKYYADSVKGRFTISRDNSKNTLYLQMNSLRAEDTAVYFCAREGDYYGSGSYYPLDYYYYGMDVWGQGTTVTVSS
VL: DIQLTQSPSFLSASVGDRVTITCRASQGISSYLAWYQQKPGKAPKLLIYAASTLQSGVPSRFSGSGSGTEFTLTISSLQPEDFATYYCQQLNSFPRTFGQGTKVEIK
B6: tOX40.21 (S-CL-LN-2) (antibody, V domains shown)
VH: QVQLVESGGGVVQPGRSLRLSCAASGFTFSNYGMHWVRQAPGKGLEWVAVIWYDGSNKYYADSVKGRFTISRDNSKNTLYLQMNSLRAEDTAVYYCARNGDSYFDYWGQGTLVTVSS
VL: not shown
B7: tOX40.31 (S-CL-LN-11) (antibody, V domains shown)
VH: QVQLQESGPGLVKPSETLSLTCTVSGDSISFYYWSWIRQPPGKGLEWIGCIYYSGSTNYNPSLKSRVTISVDTSKNQFSLKLNSVTAADTAVYYCARRLWFGVFDYWGQGTLVPVSS
VL: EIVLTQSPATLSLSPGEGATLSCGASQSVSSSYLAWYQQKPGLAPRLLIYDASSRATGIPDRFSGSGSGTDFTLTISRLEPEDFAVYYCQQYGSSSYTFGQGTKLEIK
B8: tOX40.40 (S-CL-LN-7) (antibody, V domains shown)
VH: QVQLVESGGDVVQPGMSLRLSCAASGFTFSDYGMHWVRQAPGKGLEWVAVIWYDGSNKYYEDSVKGRFTISRDNSKNTLYLQMNSLRAEDTAVYYCTRAGFGESGYGMDVWGQGTTVTVSS
VL: DIQMTQSPSSLSASVGDRVTITCRASQGISNYLAWYQQKPGKVPKLLIYAASTLQSGVPSRFSGSGSGTDFTLTISSLQPEDVATYYCQKYHSAPWTFGQGTKVEIK
B9: tOX40.23 (S-CL-LN-8) (antibody, V domains shown)
VH: QVQLVESGGGVVQPGRSLRLSCAASGFTFSNYGMHWVRQAPGKGLEWVAVIWYDGSKKYYADSVKGRFTISRDNSKNTLYLQMNSLRAEDTAVYYCARAGFGESGYGMDVWGQGTTVTVSS
VL: DIQMTQSPSSLSASVGDRVTFTCRASQGINNYLAWYQQKPGKVPKLLIYAASTLQSGVPSRFSGSGSGTDFTLTISSLQPEDVATYYCQKYYSAPWTFGQGTKVEVK
B10: tOX40.19 (S-CL-LN-4) (antibody, V domains shown)
VH: QVQLVESGGGVVQPGRSLRLSCAASGFTFSTYGMHWVRQAPGKGLEWVAVIWYDGSNKYYADSVKGRFTISRDNSKNTLYLQMNSLRAEDTAVYYCARTHYDILTGPNWFDPWGQGTLVTVSS
VL: DIQMTQSPSSLSASVGDRVTITCRASQDIRNDLGWYQQKPGKAPKRLIYAASSLQSGVPSRFSGSGSGTEFTLTISSLQPEDFATYYCLQHNSYPFTFGPGTKVDIK
B11: tOX40.35 (S-S-Sp-3) (antibody, V domains shown)
VH: QVQLVQSGAEVKKPGASVKVSCKASGYTFTSYGITWVRQAPGQGLEWVGWISAYNGNTNYAQKLQGRVTMTTDTSTSTAYMELRSLRSDDTAVYYCARDFAGGSYYFDYWGQGTLVTVSS
VL: not shown
B12: tOX40.4 (S-S-Sp-1/S-CL-Sp-2) (antibody, V domains shown)
VH: QVQLVQSGAEVKKPGASVKVSCKVSGYTLTELSMHWVRQAPGKGLEWMGGFDPKDGETIYAQKFQGRVTMTEDTSTDTAYMELSSLRSEDTAVYYCSTGYCSTTSCGGFDPWGQGTLVTVSS
VL: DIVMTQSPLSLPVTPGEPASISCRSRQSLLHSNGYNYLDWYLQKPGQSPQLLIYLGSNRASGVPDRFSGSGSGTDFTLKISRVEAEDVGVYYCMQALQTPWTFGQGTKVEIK
B13: tOX40.24 (antibody, V domains shown)
VH: QVQLVESGGGVVQPGRSLRLSCAASGFTFRSYGMHWVRQAPGKGLEWLAIIWYDGSNKYYADSVKGRLTISRDNSKNTLYLQMNSLRAEDTAVYYCARDTQVAEAGFPHHHYYGMDVWGQGTTVTVSS
VL: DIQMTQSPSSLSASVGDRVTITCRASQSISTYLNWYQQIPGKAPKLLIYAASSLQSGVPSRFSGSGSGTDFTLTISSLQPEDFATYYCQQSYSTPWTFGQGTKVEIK
notes: human IgHG1 constant domains; kappa; source: ExpiCHO, transiently transfected; quantified in the supernatants
B14: tOX40.63 (antibody, V domains shown)
VH: QVQLVQSGAEVKKPGASVKVSCKVSGYTLTELSMHWVRQAPGKGLEWMGGFDPEDGETIYAQKFQGRVTMTEDTSTDTAYMELSSLRSEDTAVYYCAANWGSDYYYGMDVWGQGTTVTVSS
VL: AIQLTQSPSSLSASVGDRVTITCRASQGISSALAWYQQKPGKAPKLLIYDASSLESGVPSRFSGSGSGTDFTLTISSLQPEDFATYYCQQFNNYPRTFGQGTKVEIK
notes: as for B13

Each binder was assayed against T1, recombinant His-tagged human OX40 extracellular domain (Homo sapiens, UniProt P43489) (assay: not given). Conditions: not given.
T1 sequence (P43489 29-214): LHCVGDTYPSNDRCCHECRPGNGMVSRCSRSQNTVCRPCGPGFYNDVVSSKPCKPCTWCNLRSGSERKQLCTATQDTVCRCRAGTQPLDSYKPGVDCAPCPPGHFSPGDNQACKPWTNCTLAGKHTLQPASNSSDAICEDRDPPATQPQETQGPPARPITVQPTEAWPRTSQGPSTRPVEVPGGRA

| Binder | Kd [nM] |
| --- | --- |
| B1 | 90 |
| B2 | 12.5 |
| B3 | 58.4 |
| B4 | 7.3 |
| B5 | 6 |
| B6 | 7 |
| B7 | 22.4 |
| B8 | 151 |
| B9 | 5.2 |
| B10 | 7.7 |
| B11 | 2.7 |
| B12 | 9 |

These binders were tested against T2, human OX40 expressed on Flp-In CHO cells (Homo sapiens, UniProt P43489) (assay: cell-based or functional assay). Conditions: not given.
T2 sequence (P43489 29-277): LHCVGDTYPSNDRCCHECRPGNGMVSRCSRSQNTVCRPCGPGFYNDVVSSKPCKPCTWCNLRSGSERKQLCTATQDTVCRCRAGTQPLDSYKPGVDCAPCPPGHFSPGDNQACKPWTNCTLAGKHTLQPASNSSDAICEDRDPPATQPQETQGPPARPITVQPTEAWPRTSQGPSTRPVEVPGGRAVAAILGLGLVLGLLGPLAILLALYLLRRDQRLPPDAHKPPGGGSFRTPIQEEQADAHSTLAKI

| Binder | Promega In Vitro Assay EC50 (Agonist): luminescence of OX40-expressing Jurkat cells with FcγRIIB/CHO-K1 cells [µg/mL] |
| --- | --- |
| B13 | 0.024 |

Each binder was assayed against T1, recombinant His-tagged human OX40 … (assay: BLI; Octet Red96; 5 μg/mL antibody loaded onto Protein A biosensor, dipped into His-tagged OX40 extracellular domain at 200, 100 and 50 nM or 1600, 800 and 400 nM; 1:1 binding model, global fit). Conditions: one partner purified.

| Binder | Kd [nM] |
| --- | --- |
| B13 | 22.9 |

The binders below were run against T2, human OX40 expressed on Flp-In CHO cells (assay: flow cytometry on cells; one million CHO cells (1:1 mix of OX40-expressing and PD-1-expressing negative control cells) stained with 1 μg mAb in 100 μL MACS Buffer (DPBS, 0.5% BSA, 2 mM EDTA), 30 min, 4 °C; detected with anti-human IgG Fc-PE). Conditions: partners not purified.

| Binder | binding result |
| --- | --- |
| B14 | no binding (tested: 1 μg of anti-OX40 mAb in 100 μL) |
